The target of series [1] is T1, RhlB (E. coli DEAD-box RNA helicase), wild type (E. coli) (UniProt P0A8J8).
T1 sequence: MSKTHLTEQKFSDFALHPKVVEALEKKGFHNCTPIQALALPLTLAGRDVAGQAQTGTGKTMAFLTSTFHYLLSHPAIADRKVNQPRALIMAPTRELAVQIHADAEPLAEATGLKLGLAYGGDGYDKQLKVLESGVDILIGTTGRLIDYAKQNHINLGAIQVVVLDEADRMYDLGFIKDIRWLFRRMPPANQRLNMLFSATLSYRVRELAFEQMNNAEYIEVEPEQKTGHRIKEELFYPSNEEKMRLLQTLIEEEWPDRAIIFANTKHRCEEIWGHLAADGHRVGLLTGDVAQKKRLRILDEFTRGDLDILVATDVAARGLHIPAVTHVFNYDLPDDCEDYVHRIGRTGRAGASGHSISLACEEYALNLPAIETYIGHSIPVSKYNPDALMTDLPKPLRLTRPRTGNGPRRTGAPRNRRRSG

Series [2] deals with T1, RhlB (E. coli DEAD-box RNA helicase), wild type (E. coli). The source holds these as a separate data set.
Series [3] concerns the target T2, RhlB (E. coli DEAD-box RNA helicase), wild type (E. coli, UniProt P0A8J8 1-421).
T2 sequence (looked up): T1 sequence
Kind of series: cell-based or functional assay.

Series [4] has as its target T3, RhlB (Escherichia coli, UniProt P0A8J8 1-421).
T3 sequence: T1 sequence
The series can be described thus: NMR (1H imino titration); no ATP; 4.5 mM Mg2+; NMR: 150 mM KCl, 25 mM Tris/HCl, 5 mM DTT, 4.5 mM MgCl2, pH 8.3, 288 K, 100 µM RNA; EMSA: 150 mM NaCl, 25 mM Tris, 1.5 mM MgCl2, 5 mM DTT, 10% glycerol, pH 8.3, 4 C, 1.5 µM RNA. To be noted: protein: recombinant, tags: C-terminal TEV site (ENLYFQG) + 6xHis, His-tag removed by TEV, site remnant left. A general note: In EMSA bound probe runs differently from free probe, usually more slowly.

Series [5] deals with RhlB;RNase E (694-790) (Escherichia coli;Escherichia coli, UniProt P0A8J8;P21513 1-421;694-790, |). The description is as above. The note with it: protein: recombinant;recombinant, tags: C-terminal TEV site (ENLYFQG) + 6xHis, His-tag removed by TEV, site remnant left;N-terminal 6xHis-TEV, purified analogously (tag cleaved), copies: 1;1.
[6] abbreviates: label: none (titration), 3' overhang 8 nt.
The mark [7] stands for this setting: label: none (titration), single strand, two weak base pairs under NMR conditions.

Some results are limits rather than exact numbers.

As to “RNase E (628-843) (from UniProt P21513 628-843) (domain or fragment)”, in series [1], the ATP turnover rate of RhlB (EnzChek phosphate assay, 2.4 uM RhlB and RNase E fragment, 6 uM RNA substrates of different topology), fold increase over RhlB alone was below 27 fold. In series [2], this molecule showed an ATP turnover of RhlB with 5'-OV RNA, activation factor over RhlB alone, 31P real-time NMR experiment (400 uM RhlB/RNase E 1:1, 100 uM RNA) of 2 fold and an ATP turnover of RhlB with 5'-OV RNA, activation factor over RhlB alone, phosphate assay of 10 fold.

B1: RNase E (694-790) (domain or fragment, E. coli, UniProt P21513 694-790, looked up)
chain: AKALNVEEQSVQETEQEERVRPVQPRRKQRQLNQKVRYEQSVAEEAVVAPVVEETVAAEPIVQEAPAPRTELVKVPLPVVAQTAPEQQEENNADNRD
As for B1, the “ATP turnover rate of RhlB (EnzChek phosphate assay, 2.4 uM RhlB and RNase E fragment, 6 uM RNA substrates of different topology), fold increase over RhlB alone” value in series [3] was at most 6 fold.

B2: Blunt duplex 21 nt (dsRNA)
RNA 1: UAGUAACUAAAACAUUAAAUU
RNA 2: AAUUUAAUGUUUUAGUUACUA
The Kd is the equilibrium constant for the complex coming apart. Take B2: the Kd in series [4] (label: none, blunt) was 162 ± 30.3 µM.

B3: Blunt duplex 13 nt (dsRNA)
RNA 1: UAGUAACUAAAAC
RNA 2: GUUUUAGUUACUA
Regarding B3, the Kd in series [5] (label: none, blunt) is 488 ± 40.5 µM; in series [4] (label: none, blunt), 155 ± 33.7 µM.

B4: 3'-OV duplex (dsRNA)
RNA 1: UAGUAACUAAAACAUUAAAUU
RNA 2: GUUUUAGUUACUA
Consider B4, for which the Kd in series [5] (setting [6]) came to 82.3 ± 27.3 µM; in series [4] (setting [6]), 216 ± 33.7 µM.

B5: 21 nt single strand (ssRNA)
RNA: UAGUAACUAAAACAUUAAAUU
As to B5, the Kd came out at 264.5 ± 1 µM in series [5] (setting [7]) and 94.9 ± 59.2 µM in series [4] (setting [7]).
